Assay results: patent US20220204580A1 (AstraZeneca / MedImmune, published 2022)
Numbered stars: 1 amine (or outer) side, 2 acyl side, 3 side chain; on linkers, the order of the positions; unused ones are H or OH. Bridge positions count the residues as written; N and C are the ends. Square brackets hold non-standard residues; d marks the D form. Side chains are listed from the residue outwards. Ends that are not written are not given here. * marks the point of attachment. C20 diacid = O=C(O)CCCCCCCCCCCCCCCCCCC(=O)*; C18 diacid = O=C(O)CCCCCCCCCCCCCCCCC(=O)*; γGlu = O=C(O)[C@H](CCC(=O)[*:2])N[*:1]; αMeF = C[C@](N)(Cc1ccccc1)C(=O)O; AEEA = NCCOCCOCC(=O)O

T1: rat amylin receptor (calcitonin receptor co-expressed with receptor activity modifying protein, RAMP3) (rat, UniProt P32214 25-516; Q9JJ73 23-147)
T1 sequence (looked up) 1: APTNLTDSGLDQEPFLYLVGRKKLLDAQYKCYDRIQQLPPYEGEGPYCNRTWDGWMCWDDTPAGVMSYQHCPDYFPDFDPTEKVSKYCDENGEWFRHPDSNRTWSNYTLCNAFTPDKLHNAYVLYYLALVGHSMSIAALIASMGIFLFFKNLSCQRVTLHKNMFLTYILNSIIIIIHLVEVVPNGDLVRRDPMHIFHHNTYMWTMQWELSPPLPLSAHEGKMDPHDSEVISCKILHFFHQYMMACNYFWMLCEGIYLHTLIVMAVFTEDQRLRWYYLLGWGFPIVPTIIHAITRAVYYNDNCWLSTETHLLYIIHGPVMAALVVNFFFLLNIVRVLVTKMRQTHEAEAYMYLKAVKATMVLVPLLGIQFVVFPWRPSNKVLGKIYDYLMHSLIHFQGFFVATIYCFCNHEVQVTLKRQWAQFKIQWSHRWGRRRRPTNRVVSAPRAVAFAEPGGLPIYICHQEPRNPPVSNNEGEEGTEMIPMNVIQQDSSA
T1 sequence (looked up) 2: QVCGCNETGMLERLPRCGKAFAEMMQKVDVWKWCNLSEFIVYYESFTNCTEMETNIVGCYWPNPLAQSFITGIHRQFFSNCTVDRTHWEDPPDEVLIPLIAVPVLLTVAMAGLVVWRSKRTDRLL

T2: rat calcitonin receptor (rat, UniProt P32214 25-516)
T2 sequence (looked up): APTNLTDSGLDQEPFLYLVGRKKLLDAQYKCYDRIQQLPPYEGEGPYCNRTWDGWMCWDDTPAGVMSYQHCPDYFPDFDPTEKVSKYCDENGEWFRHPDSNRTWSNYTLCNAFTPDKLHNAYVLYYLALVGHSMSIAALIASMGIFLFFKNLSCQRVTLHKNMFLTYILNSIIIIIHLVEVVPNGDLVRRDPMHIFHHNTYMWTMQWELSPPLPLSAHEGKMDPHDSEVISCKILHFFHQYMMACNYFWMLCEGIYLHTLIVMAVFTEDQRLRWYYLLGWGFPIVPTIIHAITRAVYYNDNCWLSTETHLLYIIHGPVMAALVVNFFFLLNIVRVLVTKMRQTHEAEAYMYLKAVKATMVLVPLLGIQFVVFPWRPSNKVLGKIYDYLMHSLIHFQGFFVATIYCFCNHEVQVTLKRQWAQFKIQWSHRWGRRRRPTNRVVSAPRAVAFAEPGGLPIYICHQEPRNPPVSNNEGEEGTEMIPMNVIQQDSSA

T3: human calcitonin receptor (human, UniProt P30988 25-474)
T3 sequence (looked up): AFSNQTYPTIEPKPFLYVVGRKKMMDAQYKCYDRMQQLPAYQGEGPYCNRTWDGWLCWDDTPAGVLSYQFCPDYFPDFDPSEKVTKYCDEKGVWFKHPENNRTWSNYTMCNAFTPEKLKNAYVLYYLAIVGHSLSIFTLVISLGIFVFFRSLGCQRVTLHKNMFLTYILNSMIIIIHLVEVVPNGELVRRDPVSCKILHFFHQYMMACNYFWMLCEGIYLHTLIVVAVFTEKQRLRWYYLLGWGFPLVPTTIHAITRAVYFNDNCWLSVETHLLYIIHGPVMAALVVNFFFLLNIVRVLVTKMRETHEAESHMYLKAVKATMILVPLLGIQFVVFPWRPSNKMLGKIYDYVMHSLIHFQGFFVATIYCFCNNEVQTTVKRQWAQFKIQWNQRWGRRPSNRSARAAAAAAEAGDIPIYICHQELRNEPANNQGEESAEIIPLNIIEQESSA

T4: human amylin receptor (calcitonin receptor co-expressed with receptor activity modifying protein, RAMP3) (human, UniProt P30988 25-474; O60896 24-148)
T4 sequence (looked up) 1: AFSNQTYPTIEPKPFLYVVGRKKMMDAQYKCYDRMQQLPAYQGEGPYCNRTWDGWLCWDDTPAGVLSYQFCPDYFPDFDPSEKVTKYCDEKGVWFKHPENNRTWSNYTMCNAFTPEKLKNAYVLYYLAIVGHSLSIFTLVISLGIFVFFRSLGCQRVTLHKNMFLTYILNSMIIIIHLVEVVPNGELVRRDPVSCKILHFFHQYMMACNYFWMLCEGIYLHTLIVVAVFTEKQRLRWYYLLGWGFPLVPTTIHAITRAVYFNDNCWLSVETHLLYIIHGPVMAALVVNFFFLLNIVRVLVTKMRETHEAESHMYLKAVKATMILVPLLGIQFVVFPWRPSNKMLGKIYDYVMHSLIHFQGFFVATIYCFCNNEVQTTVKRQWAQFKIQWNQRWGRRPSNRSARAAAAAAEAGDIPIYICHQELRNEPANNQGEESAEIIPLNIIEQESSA
T4 sequence (looked up) 2: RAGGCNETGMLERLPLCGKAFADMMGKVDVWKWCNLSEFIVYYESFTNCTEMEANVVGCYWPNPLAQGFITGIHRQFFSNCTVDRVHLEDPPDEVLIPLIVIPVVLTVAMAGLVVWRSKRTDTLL

B1: Peptide 114 (SEQ ID NO: 114) (peptide)
peptide: K([γGlu-γGlu-C20 diacid])CNTATCATQRLANFLVHSSNNFGPILPPTNVGSRTY-NH2
modifications: disulfide 2-7; N-terminus assumed
SMILES: CC[C@H](C)[C@H](NC(=O)[C@@H]1CCCN1C(=O)CNC(=O)[C@H](Cc1ccccc1)NC(=O)[C@H](CC(N)=O)NC(=O)[C@H](CC(N)=O)NC(=O)[C@H](CO)NC(=O)[C@H](CO)NC(=O)[C@H](Cc1c[nH]cn1)NC(=O)[C@@H](NC(=O)[C@H](CC(C)C)NC(=O)[C@H](Cc1ccccc1)NC(=O)[C@H](CC(N)=O)NC(=O)[C@H](C)NC(=O)[C@H](CC(C)C)NC(=O)[C@H](CCCNC(=N)N)NC(=O)[C@H](CCC(N)=O)NC(=O)[C@@H](NC(=O)[C@H](C)NC(=O)[C@@H]1CSSC[C@H](NC(=O)[C@@H](N)CCCCNC(=O)CC[C@H](NC(=O)CC[C@H](NC(=O)CCCCCCCCCCCCCCCCCCC(=O)O)C(=O)O)C(=O)O)C(=O)N[C@@H](CC(N)=O)C(=O)N[C@@H]([C@@H](C)O)C(=O)N[C@@H](C)C(=O)N[C@@H]([C@@H](C)O)C(=O)N1)[C@@H](C)O)C(C)C)C(=O)N[C@@H](CC(C)C)C(=O)N1CCC[C@H]1C(=O)N1CCC[C@H]1C(=O)N[C@H](C(=O)N[C@@H](CC(N)=O)C(=O)N[C@H](C(=O)NCC(=O)N[C@@H](CO)C(=O)N[C@@H](CCCNC(=N)N)C(=O)N[C@H](C(=O)N[C@@H](Cc1ccc(O)cc1)C(N)=O)[C@@H](C)O)C(C)C)[C@@H](C)O
B2: Peptide 116 (SEQ ID NO: 116) (peptide)
peptide: K([γGlu-γGlu-C20 diacid])CNTATCATQRLAEFLRHSSNNFGPILPPTNVGSNTY-NH2
modifications: disulfide 2-7; N-terminus assumed
SMILES: CC[C@H](C)[C@H](NC(=O)[C@@H]1CCCN1C(=O)CNC(=O)[C@H](Cc1ccccc1)NC(=O)[C@H](CC(N)=O)NC(=O)[C@H](CC(N)=O)NC(=O)[C@H](CO)NC(=O)[C@H](CO)NC(=O)[C@H](Cc1c[nH]cn1)NC(=O)[C@H](CCCNC(=N)N)NC(=O)[C@H](CC(C)C)NC(=O)[C@H](Cc1ccccc1)NC(=O)[C@H](CCC(=O)O)NC(=O)[C@H](C)NC(=O)[C@H](CC(C)C)NC(=O)[C@H](CCCNC(=N)N)NC(=O)[C@H](CCC(N)=O)NC(=O)[C@@H](NC(=O)[C@H](C)NC(=O)[C@@H]1CSSC[C@H](NC(=O)[C@@H](N)CCCCNC(=O)CC[C@H](NC(=O)CC[C@H](NC(=O)CCCCCCCCCCCCCCCCCCC(=O)O)C(=O)O)C(=O)O)C(=O)N[C@@H](CC(N)=O)C(=O)N[C@@H]([C@@H](C)O)C(=O)N[C@@H](C)C(=O)N[C@@H]([C@@H](C)O)C(=O)N1)[C@@H](C)O)C(=O)N[C@@H](CC(C)C)C(=O)N1CCC[C@H]1C(=O)N1CCC[C@H]1C(=O)N[C@H](C(=O)N[C@@H](CC(N)=O)C(=O)N[C@H](C(=O)NCC(=O)N[C@@H](CO)C(=O)N[C@@H](CC(N)=O)C(=O)N[C@H](C(=O)N[C@@H](Cc1ccc(O)cc1)C(N)=O)[C@@H](C)O)C(C)C)[C@@H](C)O
B3: Peptide 115 (SEQ ID NO: 115) (peptide)
peptide: K([γGlu-γGlu-C20 diacid])CNTATCATQRLANFLVHSSPNFPAILSPTNVGSNTY-NH2
modifications: disulfide 2-7; N-terminus assumed
SMILES: CC[C@H](C)[C@H](NC(=O)[C@H](C)NC(=O)[C@@H]1CCCN1C(=O)[C@H](Cc1ccccc1)NC(=O)[C@H](CC(N)=O)NC(=O)[C@@H]1CCCN1C(=O)[C@H](CO)NC(=O)[C@H](CO)NC(=O)[C@H](Cc1c[nH]cn1)NC(=O)[C@@H](NC(=O)[C@H](CC(C)C)NC(=O)[C@H](Cc1ccccc1)NC(=O)[C@H](CC(N)=O)NC(=O)[C@H](C)NC(=O)[C@H](CC(C)C)NC(=O)[C@H](CCCNC(=N)N)NC(=O)[C@H](CCC(N)=O)NC(=O)[C@@H](NC(=O)[C@H](C)NC(=O)[C@@H]1CSSC[C@H](NC(=O)[C@@H](N)CCCCNC(=O)CC[C@H](NC(=O)CC[C@H](NC(=O)CCCCCCCCCCCCCCCCCCC(=O)O)C(=O)O)C(=O)O)C(=O)N[C@@H](CC(N)=O)C(=O)N[C@@H]([C@@H](C)O)C(=O)N[C@@H](C)C(=O)N[C@@H]([C@@H](C)O)C(=O)N1)[C@@H](C)O)C(C)C)C(=O)N[C@@H](CC(C)C)C(=O)N[C@@H](CO)C(=O)N1CCC[C@H]1C(=O)N[C@H](C(=O)N[C@@H](CC(N)=O)C(=O)N[C@H](C(=O)NCC(=O)N[C@@H](CO)C(=O)N[C@@H](CC(N)=O)C(=O)N[C@H](C(=O)N[C@@H](Cc1ccc(O)cc1)C(N)=O)[C@@H](C)O)C(C)C)[C@@H](C)O
B4: Peptide 12 (SEQ ID NO: 12) (peptide)
peptide: K([γGlu-C18 diacid])KCNTATCATQRLAEFLRHSSNN[αMeF]GPILPPTNVGSNTY-NH2
modifications: disulfide 3-8; N-terminus assumed
SMILES: CC[C@H](C)[C@H](NC(=O)[C@@H]1CCCN1C(=O)CNC(=O)[C@](C)(Cc1ccccc1)NC(=O)[C@H](CC(N)=O)NC(=O)[C@H](CC(N)=O)NC(=O)[C@H](CO)NC(=O)[C@H](CO)NC(=O)[C@H](Cc1c[nH]cn1)NC(=O)[C@H](CCCNC(=N)N)NC(=O)[C@H](CC(C)C)NC(=O)[C@H](Cc1ccccc1)NC(=O)[C@H](CCC(=O)O)NC(=O)[C@H](C)NC(=O)[C@H](CC(C)C)NC(=O)[C@H](CCCNC(=N)N)NC(=O)[C@H](CCC(N)=O)NC(=O)[C@@H](NC(=O)[C@H](C)NC(=O)[C@@H]1CSSC[C@H](NC(=O)[C@H](CCCCN)NC(=O)[C@@H](N)CCCCNC(=O)CC[C@H](NC(=O)CCCCCCCCCCCCCCCCC(=O)O)C(=O)O)C(=O)N[C@@H](CC(N)=O)C(=O)N[C@@H]([C@@H](C)O)C(=O)N[C@@H](C)C(=O)N[C@@H]([C@@H](C)O)C(=O)N1)[C@@H](C)O)C(=O)N[C@@H](CC(C)C)C(=O)N1CCC[C@H]1C(=O)N1CCC[C@H]1C(=O)N[C@H](C(=O)N[C@@H](CC(N)=O)C(=O)N[C@H](C(=O)NCC(=O)N[C@@H](CO)C(=O)N[C@@H](CC(N)=O)C(=O)N[C@H](C(=O)N[C@@H](Cc1ccc(O)cc1)C(N)=O)[C@@H](C)O)C(C)C)[C@@H](C)O

Legend:
Assay in all cases: cell-based or functional assay
[1] = target: T1, rat amylin receptor (calcitonin …)
rat calcitonin receptor = target: T2, rat calcitonin receptor
[2] = target: T3, human calcitonin receptor
[3] = target: T4, human amylin receptor (calcitonin …)

| Binder | EC50 (cAMP production) [1] | EC50 (cAMP production) (rat calcitonin receptor) | EC50 (cAMP production) [2] | EC50 (cAMP production) [3] | Ratio (EC50 hCTR / EC50 hAMYR3) [3] |
| --- | --- | --- | --- | --- | --- |
| {C20 diacid-γGlu}-KCNTATCATQRLANFLVHSSNNFGPILPPTNVGSNTY-NH2 (disulfide 2-7) [Peptide 112 (SEQ ID NO: 112)] | 0.016 nM | 0.259 nM | 1.33 nM | 0.861 nM | 2 |
| B1 | 0.0122 nM | 4.87 nM | 15.8 nM | 1.32 nM | 12 |
| B2 | 0.0237 nM | 9.05 nM | 9.56 nM | 1.21 nM | 8 |
| B3 | 0.0226 nM | 22.6 nM | 7.65 nM | 0.703 nM | 11 |
| B4 | 0.005 nM | 0.107 nM | 1.22 nM | 0.158 nM | 8 |
| {C20 diacid-γGlu-AEEA-AEEA}-KCNTATCATQRLANFLVHSSNNFGPILPPTNVGSNTY-NH2 (disulfide 2-7) [Peptide 113 (SEQ ID NO: 113)] | 0.0326 nM | 10.4 nM | 18.5 nM | 1.17 nM | 16 |
